The values that follow come from patent publication US8563314.

Assay in all cases: cell_activity
One series concerns ZFN 25014 (synthetic). To be noted: pair with 12942, PBMC, 37C day 3.
In another series the test system is ZFN 25022 (synthetic). Particulars: pair with 12942, PBMC, 37C day 3.
For another series, the system named is ZFN 25025 (synthetic). Particulars: pair with 12942, PBMC, 37C day 3.
A further series deals with ZFN 25032 (synthetic). To be noted: pair with 12942, PBMC, 37C day 3.
The next series relates to ZFN 25016 (synthetic). To be noted: pair with 12942, PBMC, 37C day 3.
For the next series, the system named is ZFN 25040 (synthetic). To be noted: pair with 12942, PBMC, 37C day 3.
Another series relates to ZFN 25036 (synthetic). Particulars: pair with 12942, PBMC, 37C day 3; helices printed identical to 25031.
For another series, the system named is ZFN 25013 (synthetic). Particulars: pair with 12942, PBMC, 37C day 3.
For the next series, the system named is ZFN 25030 (synthetic). To be noted: pair with 12942, PBMC, 37C day 3; F3 printed RPMHUTN.
For another series, the system named is ZFN 25005 (synthetic). To be noted: pair with 12942, PBMC, 37C day 3.
Another series deals with ZFN 25011 (synthetic). To be noted: pair with 12942, PBMC, 37C day 3.
A further series has as its system ZFN 25027 (synthetic). To be noted: pair with 12942, PBMC, 37C day 3.
A further series has as its system ZFN 25029 (synthetic). To be noted: pair with 12942, PBMC, 37C day 3.
A further series deals with ZFN 25031 (synthetic). Particulars: pair with 12942, PBMC, 37C day 3.
A further series concerns ZFN 25034 (synthetic). Particulars: pair with 12942, PBMC, 37C day 3.
The next series deals with ZFN 25010 (synthetic). Particulars: pair with 12942, PBMC, 37C day 3.
The next series has as its system ZFN 25015 (synthetic). Particulars: pair with 12942, PBMC, 37C day 3; helices printed identical to 25014.
The subject of the next series is ZFN 25028 (synthetic). To be noted: pair with 12942, PBMC, 37C day 3.
The test system of another series is ZFN 25012 (synthetic). To be noted: pair with 12942, PBMC, 37C day 3.
Another series deals with ZFN 25041 (synthetic). Particulars: pair with 12942, PBMC, 37C day 3.
For the next series, the system named is ZFN 25017 (synthetic). Particulars: pair with 12942, PBMC, 37C day 3.
Another series relates to ZFN 25023 (synthetic). To be noted: pair with 12942, PBMC, 37C day 3.
For a further series, the system named is ZFN 25006 (synthetic). To be noted: pair with 12942, PBMC, 37C day 3.
The test system of another series is ZFN 18759 (synthetic). Particulars: pair with 12942, PBMC, 37C day 3.
The subject of the next series is ZFN 12942 (synthetic). Particulars: pair with 12947, day 3, K562.
Another series deals with ZFN 12971 (synthetic). To be noted: pair with 12934, day 3, K562.
Another series deals with ZFN 12972 (synthetic). Particulars: pair with 12934, day 3, K562.
Another series deals with ZFN 12934 (synthetic). Particulars: pair with 12971 or 12972, day 3, K562.

For the sequence “CAGTCGTCTGGGCGGTGCT (double strand) [PD1 exon 1 18759/250xx site]”, the activity in the series on ZFN 25014 (synthetic) stood at 10.7 % NHEJ; in the series with ZFN 25022 (synthetic) it was 3.6 % NHEJ; in the series on ZFN 25025 (synthetic) it was 8.8 % NHEJ; with ZFN 25032 (synthetic), 6.7 % NHEJ; in the series with ZFN 25016 (synthetic), 7.3 % NHEJ; in the series with ZFN 25040 (synthetic), 6.1 % NHEJ. Also, the activity turned out to be 8.3 % NHEJ in the series on ZFN 25036 (synthetic); 3.7 % NHEJ with ZFN 25013 (synthetic); 7.6 % NHEJ in the series with ZFN 25030 (synthetic); 4.4 % NHEJ with ZFN 25005 (synthetic); 3.1 % NHEJ in the series with ZFN 25011 (synthetic); 6 % NHEJ in the series with ZFN 25027 (synthetic). Further, the activity stood at 8.1 % NHEJ in the series with ZFN 25029 (synthetic); 9.4 % NHEJ in the series with ZFN 25031 (synthetic); 4.9 % NHEJ in the series on ZFN 25034 (synthetic); 4.9 % NHEJ in the series on ZFN 25010 (synthetic); 3.9 % NHEJ with ZFN 25015 (synthetic); 4.3 % NHEJ in the series with ZFN 25028 (synthetic). Also, the activity in the series with ZFN 25012 (synthetic) worked out at 5.9 % NHEJ; in the series on ZFN 25041 (synthetic), 7.9 % NHEJ; with ZFN 25017 (synthetic) it was 7.7 % NHEJ; in the series with ZFN 25023 (synthetic), 3.1 % NHEJ; in the series with ZFN 25006 (synthetic), 2.9 % NHEJ; in the series with ZFN 18759 (synthetic), 4.7 % NHEJ.

“CCAGGGCGCCTGTGGGATCTGCATGCCT (double strand) [PD1 exon 1 12942 site]” gave an activity in the series on ZFN 12942 (synthetic) of 10 % NHEJ.

On to “CTGTGGACTATGGGGAGCTGGATTTCCA (double strand) [PD1 exon 5 12971/12972 site]”, for which the activity in the series with ZFN 12971 (synthetic) and in the series on ZFN 12972 (synthetic) was 11 % NHEJ in each case.

Take “GAACACAGGCACGGCTGAGGGGTCCTCC (double strand) [PD1 exon 5 12934 site]”: the activity with ZFN 12934 (synthetic) was found to be 11 % NHEJ.
